Test results from US20210292422A1 (SURROZEN, published 2021).

T1: LRP6E1E2 (UniProt O75581 20-630)
T1 construct: domain: E1E2; also called LRP6 E1E2 domains
T1 sequence (looked up): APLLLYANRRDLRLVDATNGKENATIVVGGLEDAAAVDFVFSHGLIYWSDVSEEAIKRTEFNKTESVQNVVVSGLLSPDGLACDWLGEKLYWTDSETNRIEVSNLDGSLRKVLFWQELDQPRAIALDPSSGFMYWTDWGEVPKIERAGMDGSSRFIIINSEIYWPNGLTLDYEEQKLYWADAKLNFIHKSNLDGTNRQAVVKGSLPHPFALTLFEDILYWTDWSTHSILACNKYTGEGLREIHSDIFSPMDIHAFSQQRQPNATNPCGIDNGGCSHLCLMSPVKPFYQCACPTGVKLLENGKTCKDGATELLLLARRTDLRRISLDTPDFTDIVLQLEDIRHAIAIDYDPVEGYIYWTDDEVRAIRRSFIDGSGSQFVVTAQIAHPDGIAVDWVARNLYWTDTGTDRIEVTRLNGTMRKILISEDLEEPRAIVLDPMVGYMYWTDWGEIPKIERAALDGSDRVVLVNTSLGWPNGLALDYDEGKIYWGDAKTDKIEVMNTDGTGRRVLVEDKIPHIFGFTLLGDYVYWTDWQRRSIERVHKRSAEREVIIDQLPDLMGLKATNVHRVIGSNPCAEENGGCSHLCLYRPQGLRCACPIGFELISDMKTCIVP

T2: FZD5 (UniProt Q13467 28-150, limits assumed)
T2 construct: also called Frizzled 5
T2 sequence (looked up): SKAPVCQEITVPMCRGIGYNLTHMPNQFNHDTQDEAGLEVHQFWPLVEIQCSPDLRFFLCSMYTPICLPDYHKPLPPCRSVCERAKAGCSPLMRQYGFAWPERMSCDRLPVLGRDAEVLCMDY


target: T1, LRP6E1E2; assay: BLI (Octet), FIG. 11B

| binding result | Binder |
| --- | --- |
| binds | L1:10:F1:Fc (bispecific antibody, 2:2 tandem scFv-Fc) DVKLVESGGGLVKLGGSLRLSCAASGFSFSTSYMSWVRQTPEKRLELVAAINLNGGSTYYSDTVKGRFTISRDNAKNTLYLQMSSLKSEDTAFYYCASELAGYGTPFAYWGQGTLVTVSAGSAASGSSGGSSSGADIVLTQSPATLSVTPGDSVSLSCKASQSISYNLHWYQQKSHESPRLLIKYTSQSISGIPSRFSGSGSGTDFTLTINNVETEDFGMYFCQQSNSWPLTFGAGTKLEVKGSGSGGSGSGEVQLVESGGGLVQPGGSLRLSCAASGFTFSHYTLSWVRQAPGKGLEWVSVISGDGSYTYYADSVKGRFTISSDNSKNTLYLQMNSLRAEDTAVYYCARNFIKYVFANWGQGTLVTVSSGGGGSGGGGSGGGGSDIELTQPPSVSVAPGQTARISCSGDNIGSFYVHWYQQKPGQAPVLVIYDKSNRPSGIPERFSGSNSGNTATLTISGTQAEDEADYYCQSYANTLSLVFGGGTKLTVLGSGSGDKTHTCPPCPAPEAAGGPSVFLFPPKPKDTLMISRTPEVTCVVVDVSHEDPEVKFNWYVDGVEVHNAKTKPREEQYNSTYRVVSVLTVLHQDWLNGKEYKCKVSNKALGAPIEKTISKAKGQPREPQVYTLPPSREEMTKNQVSLTCLVKGFYPSDIAVEWESNGQPENNYKTTPPVLDSDGSFFLYSKLTVDKSRWQQGNVFSCSVMHEALHNHYTQKSLSLSPGK |
| binds | L1:15:F1:Fc (bispecific antibody, 2:2 tandem scFv-Fc) DVKLVESGGGLVKLGGSLRLSCAASGFSFSTSYMSWVRQTPEKRLELVAAINLNGGSTYYSDTVKGRFTISRDNAKNTLYLQMSSLKSEDTAFYYCASELAGYGTPFAYWGQGTLVTVSAGSAASGSSGGSSSGADIVLTQSPATLSVTPGDSVSLSCKASQSISYNLHWYQQKSHESPRLLIKYTSQSISGIPSRFSGSGSGTDFTLTINNVETEDFGMYFCQQSNSWPLTFGAGTKLEVKGSGSGGSGSGGSSGGEVQLVESGGGLVQPGGSLRLSCAASGFTFSHYTLSWVRQAPGKGLEWVSVISGDGSYTYYADSVKGRFTISSDNSKNTLYLQMNSLRAEDTAVYYCARNFIKYVFANWGQGTLVTVSSGGGGSGGGGSGGGGSDIELTQPPSVSVAPGQTARISCSGDNIGSFYVHWYQQKPGQAPVLVIYDKSNRPSGIPERFSGSNSGNTATLTISGTQAEDEADYYCQSYANTLSLVFGGGTKLTVLGSGSGDKTHTCPPCPAPEAAGGPSVFLFPPKPKDTLMISRTPEVTCVVVDVSHEDPEVKFNWYVDGVEVHNAKTKPREEQYNSTYRVVSVLTVLHQDWLNGKEYKCKVSNKALGAPIEKTISKAKGQPREPQVYTLPPSREEMTKNQVSLTCLVKGFYPSDIAVEWESNGQPENNYKTTPPVLDSDGSFFLYSKLTVDKSRWQQGNVFSCSVMHEALHNHYTQKSLSLSPGK |
| binds | F1:10:L1:Fc (bispecific antibody, 2:2 tandem scFv-Fc) EVQLVESGGGLVQPGGSLRLSCAASGFTFSHYTLSWVRQAPGKGLEWVSVISGDGSYTYYADSVKGRFTISSDNSKNTLYLQMNSLRAEDTAVYYCARNFIKYVFANWGQGTLVTVSSGGGGSGGGGSGGGGSDIELTQPPSVSVAPGQTARISCSGDNIGSFYVHWYQQKPGQAPVLVIYDKSNRPSGIPERFSGSNSGNTATLTISGTQAEDEADYYCQSYANTLSLVFGGGTKLTVLGSGSGGSGSGDVKLVESGGGLVKLGGSLRLSCAASGFSFSTSYMSWVRQTPEKRLELVAAINLNGGSTYYSDTVKGRFTISRDNAKNTLYLQMSSLKSEDTAFYYCASELAGYGTPFAYWGQGTLVTVSAGSAASGSSGGSSSGADIVLTQSPATLSVTPGDSVSLSCKASQSISYNLHWYQQKSHESPRLLIKYTSQSISGIPSRFSGSGSGTDFTLTINNVETEDFGMYFCQQSNSWPLTFGAGTKLEVKGSGSGDKTHTCPPCPAPEAAGGPSVFLFPPKPKDTLMISRTPEVTCVVVDVSHEDPEVKFNWYVDGVEVHNAKTKPREEQYNSTYRVVSVLTVLHQDWLNGKEYKCKVSNKALGAPIEKTISKAKGQPREPQVYTLPPSREEMTKNQVSLTCLVKGFYPSDIAVEWESNGQPENNYKTTPPVLDSDGSFFLYSKLTVDKSRWQQGNVFSCSVMHEALHNHYTQKSLSLSPGK |
| binds | F1:15:L1:Fc (bispecific antibody, 2:2 tandem scFv-Fc) EVQLVESGGGLVQPGGSLRLSCAASGFTFSHYTLSWVRQAPGKGLEWVSVISGDGSYTYYADSVKGRFTISSDNSKNTLYLQMNSLRAEDTAVYYCARNFIKYVFANWGQGTLVTVSSGGGGSGGGGSGGGGSDIELTQPPSVSVAPGQTARISCSGDNIGSFYVHWYQQKPGQAPVLVIYDKSNRPSGIPERFSGSNSGNTATLTISGTQAEDEADYYCQSYANTLSLVFGGGTKLTVLGSGSGGSGSGGSSGGDVKLVESGGGLVKLGGSLRLSCAASGFSFSTSYMSWVRQTPEKRLELVAAINLNGGSTYYSDTVKGRFTISRDNAKNTLYLQMSSLKSEDTAFYYCASELAGYGTPFAYWGQGTLVTVSAGSAASGSSGGSSSGADIVLTQSPATLSVTPGDSVSLSCKASQSISYNLHWYQQKSHESPRLLIKYTSQSISGIPSRFSGSGSGTDFTLTINNVETEDFGMYFCQQSNSWPLTFGAGTKLEVKGSGSGDKTHTCPPCPAPEAAGGPSVFLFPPKPKDTLMISRTPEVTCVVVDVSHEDPEVKFNWYVDGVEVHNAKTKPREEQYNSTYRVVSVLTVLHQDWLNGKEYKCKVSNKALGAPIEKTISKAKGQPREPQVYTLPPSREEMTKNQVSLTCLVKGFYPSDIAVEWESNGQPENNYKTTPPVLDSDGSFFLYSKLTVDKSRWQQGNVFSCSVMHEALHNHYTQKSLSLSPGK |
| binds | L1:5:F1:Fc (bispecific antibody) DVKLVESGGGLVKLGGSLRLSCAASGFSFSTSYMSWVRQTPEKRLELVAAINLNGGSTYYSDTVKGRFTISRDNAKNTLYLQMSSLKSEDTAFYYCASELAGYGTPFAYWGQGTLVTVSAGSAASGSSGGSSSGADIVLTQSPATLSVTPGDSVSLSCKASQSISYNLHWYQQKSHESPRLLIKYTSQSISGIPSRFSGSGSGTDFTLTINNVETEDFGMYFCQQSNSWPLTFGAGTKLEVKGSGSGEVQLVESGGGLVQPGGSLRLSCAASGFTFSHYTLSWVRQAPGKGLEWVSVISGDGSYTYYADSVKGRFTISSDNSKNTLYLQMNSLRAEDTAVYYCARNFIKYVFANWGQGTLVTVSSGGGGSGGGGSGGGGSDIELTQPPSVSVAPGQTARISCSGDNIGSFYVHWYQQKPGQAPVLVIYDKSNRPSGIPERFSGSNSGNTATLTISGTQAEDEADYYCQSYANTLSLVFGGGTKLTVLGSGSGDKTHTCPPCPAPEAAGGPSVFLFPPKPKDTLMISRTPEVTCVVVDVSHEDPEVKFNWYVDGVEVHNAKTKPREEQYNSTYRVVSVLTVLHQDWLNGKEYKCKVSNKALGAPIEKTISKAKGQPREPQVYTLPPSREEMTKNQVSLTCLVKGFYPSDIAVEWESNGQPENNYKTTPPVLDSDGSFFLYSKLTVDKSRWQQGNVFSCSVMHEALHNHYTQKSLSLSPGK |
| binds | F1:5:L1:Fc (bispecific antibody, 2:2 tandem scFv-Fc) EVQLVESGGGLVQPGGSLRLSCAASGFTFSHYTLSWVRQAPGKGLEWVSVISGDGSYTYYADSVKGRFTISSDNSKNTLYLQMNSLRAEDTAVYYCARNFIKYVFANWGQGTLVTVSSGGGGSGGGGSGGGGSDIELTQPPSVSVAPGQTARISCSGDNIGSFYVHWYQQKPGQAPVLVIYDKSNRPSGIPERFSGSNSGNTATLTISGTQAEDEADYYCQSYANTLSLVFGGGTKLTVLGSGSGDVKLVESGGGLVKLGGSLRLSCAASGFSFSTSYMSWVRQTPEKRLELVAAINLNGGSTYYSDTVKGRFTISRDNAKNTLYLQMSSLKSEDTAFYYCASELAGYGTPFAYWGQGTLVTVSAGSAASGSSGGSSSGADIVLTQSPATLSVTPGDSVSLSCKASQSISYNLHWYQQKSHESPRLLIKYTSQSISGIPSRFSGSGSGTDFTLTINNVETEDFGMYFCQQSNSWPLTFGAGTKLEVKGSGSGDKTHTCPPCPAPEAAGGPSVFLFPPKPKDTLMISRTPEVTCVVVDVSHEDPEVKFNWYVDGVEVHNAKTKPREEQYNSTYRVVSVLTVLHQDWLNGKEYKCKVSNKALGAPIEKTISKAKGQPREPQVYTLPPSREEMTKNQVSLTCLVKGFYPSDIAVEWESNGQPENNYKTTPPVLDSDGSFFLYSKLTVDKSRWQQGNVFSCSVMHEALHNHYTQKSLSLSPGK |

target: T2, FZD5; assay: column 'Specificity (Clone name)' of the component table; method not given there

| binding result | Binder |
| --- | --- |
| binds | F3: antiFZD5, 8 (2919) scFv (scFv) scFv: EVQLVESGGGLVQPGGSLRLSCAASGFNISYSYIHWVRQAPGKGLEWVASIYSSSGSTSYADSVKGRFTISADTSKNTAYLQMNSLRAEDTAVYYCARGAIDYWGQGTLVTVSSGGGGSGGGGSGGGGSDIQMTQSPSSLSASVGDRVTITCRASQSVSSAVAWYQQKPGKAPKLLIYSASSLYSGVPSRFSGSRSGTDFTLTISSLQPEDFATYYCQQWYSSGHVLITFGQGTKVEIK |
| binds | F1: antiFZD1, 2, 7, 5, 8 (18R5) scFv (scFv) scFv: EVQLVESGGGLVQPGGSLRLSCAASGFTFSHYTLSWVRQAPGKGLEWVSVISGDGSYTYYADSVKGRFTISSDNSKNTLYLQMNSLRAEDTAVYYCARNFIKYVFANWGQGTLVTVSSGGGGSGGGGSGGGGSDIELTQPPSVSVAPGQTARISCSGDNIGSFYVHWYQQKPGQAPVLVIYDKSNRPSGIPERFSGSNSGNTATLTISGTQAEDEADYYCQSYANTLSLVFGGGTKLTVL |

target: FZD7 (UniProt O75084 44-163); assay: as above

| binding result | Binder |
| --- | --- |
| binds | F1: antiFZD1, 2, 7, 5, 8 (18R5) scFv (scFv) scFv: EVQLVESGGGLVQPGGSLRLSCAASGFTFSHYTLSWVRQAPGKGLEWVSVISGDGSYTYYADSVKGRFTISSDNSKNTLYLQMNSLRAEDTAVYYCARNFIKYVFANWGQGTLVTVSSGGGGSGGGGSGGGGSDIELTQPPSVSVAPGQTARISCSGDNIGSFYVHWYQQKPGQAPVLVIYDKSNRPSGIPERFSGSNSGNTATLTISGTQAEDEADYYCQSYANTLSLVFGGGTKLTVL |
| binds | F2: antiFZD1, 2, 7 (R2H1) scFv (scFv) scFv: EVQLVESGGGLVQPGGSLRLSCAASGFNISSSYIHWVRQAPGKGLEWVAYIYSSYGSTYYADSVKGRFTISADTSKNTAYLQMNSLRAEDTAVYYCARASWYALDYWGQGTLVTVSSGSAASGSSGGSSSGADIQMTQSPSSLSASVGDRVTITCRASQSVSSAVAWYQQKPGKAPKLLIYSASSLYSGVPSRFSGSRSGTDFTLTISSLQPEDFATYYCQQYWYGVAPITFGQGTKVEIK |
